B1: Copper homeostasis protein cutC homolog (Homo sapiens), Q9NTM9 (parent)
chain: MKRQGASSERKRARIPSGKAGAANGFLMEVCVDSVESAVNAERGGADRIELCSGLSEGGTTPSMGVLQVVKQSVQIPVFVMIRPRGGDFLYSDREIEVMKADIRLAKLYGADGLVFGALTEDGHIDKELCMSLMAICRPLPVTFHRAFDMVHDPMAALETLLTLGFERVLTSGCDSSALEGLPLIKRLIEQAKGRIVVMPGGGITDRNLQRILEGSGATEFHCSARSTRDSGMKFRNSSVAMGASLSCSEYSLKVTDVTKVRTLNAIAKNILV
B2: PiggyBac transposable element-derived protein 1 (Homo sapiens), Q96JS3 (parent)
chain: MYEALPGPAPENEDGLVKVKEEDPTWEQVCNSQEGSSHTQEICRLRFRHFCYQEAHGPQEALAQLRELCHQWLRPEMHTKEQIMELLVLEQFLTILPKELQPCVKTYPLESGEEAVTVLENLETGSGDTGQQASVYIQGQDMHPMVAEYQGVSLECQSLQLLPGITTLKCEPPQRPQGNPQEVSGPVPHGSAHLQEKNPRDKAVVPVFNPVRSQTLVKTEEETAQAVAAEKWSHLSLTRRNLCGNSAQETVMSLSPMTEEIVTKDRLFKAKQETSEEMEQSGEASGKPNRECAPQIPCSTPIATERTVAHLNTLKDRHPGDLWARMHISSLEYAAGDITRKGRKKDKARVSELLQGLSFSGDSDVEKDNEPEIQPAQKKLKVSCFPEKSWTKRDIKPNFPSWSALDSGLLNLKSEKLNPVELFELFFDDETFNLIVNETNNYASQKNVSLEVTVQEMRCVFGVLLLSGFMRHPRREMYWEVSDTDQNLVRDAIRRDRFELIFSNLHFADNGHLDQKDKFTKLRPLIKQMNKNFLLYAPLEEYYCFDKSMCECFDSDQFLNGKPIRIGYKIWCGTTTQGYLVWFEPYQEESTMKVDEDPDLGLGGNLVMNFADVLLERGQYPYHLCFDSFFTSVKLLSALKKKGVRATGTIRENRTEKCPLMNVEHMKKMKRGYFDFRIEENNEIILCRWYGDGIISLCSNAVGIEPVNEVSCCDADNEEIPQISQPSIVKVYDECKEGVAKMDQIISKYRVRIRSKKWYSILVSYMIDVAMNNAWQLHRACNPGASLDPLDFRRFVAHFYLEHNAHLSD
B3: Calcium-binding and coiled-coil domain-containing protein 2 (Homo sapiens), Q13137 (parent)
chain: MEETIKDPPTSAVLLDHCHFSQVIFNSVEKFYIPGGDVTCHYTFTQHFIPRRKDWIGIFRVGWKTTREYYTFMWVTLPIDLNNKSAKQQEVQFKAYYLPKDDEYYQFCYVDEDGVVRGASIPFQFRPENEEDILVVTTQGEVEEIEQHNKELCKENQELKDSCISLQKQNSDMQAELQKKQEELETLQSINKKLELKVKEQKDYWETELLQLKEQNQKMSSENEKMGIRVDQLQAQLSTQEKEMEKLVQGDQDKTEQLEQLKKENDHLFLSLTEQRKDQKKLEQTVEQMKQNETTAMKKQQELMDENFDLSKRLSENEIICNALQRQKERLEGENDLLKRENSRLLSYMGLDFNSLPYQVPTSDEGGARQNPGLAYGNPYSGIQESSSPSPLSIKKCPICKADDICDHTLEQQQMQPLCFNCPICDKIFPATEKQIFEDHVFCHSL

Variants of: B1
Settings: with lnx1_human LNX1, Q8TBB1
lnx1_human LNX1, Q8TBB1, sequence (Q8TBB1 whole entry): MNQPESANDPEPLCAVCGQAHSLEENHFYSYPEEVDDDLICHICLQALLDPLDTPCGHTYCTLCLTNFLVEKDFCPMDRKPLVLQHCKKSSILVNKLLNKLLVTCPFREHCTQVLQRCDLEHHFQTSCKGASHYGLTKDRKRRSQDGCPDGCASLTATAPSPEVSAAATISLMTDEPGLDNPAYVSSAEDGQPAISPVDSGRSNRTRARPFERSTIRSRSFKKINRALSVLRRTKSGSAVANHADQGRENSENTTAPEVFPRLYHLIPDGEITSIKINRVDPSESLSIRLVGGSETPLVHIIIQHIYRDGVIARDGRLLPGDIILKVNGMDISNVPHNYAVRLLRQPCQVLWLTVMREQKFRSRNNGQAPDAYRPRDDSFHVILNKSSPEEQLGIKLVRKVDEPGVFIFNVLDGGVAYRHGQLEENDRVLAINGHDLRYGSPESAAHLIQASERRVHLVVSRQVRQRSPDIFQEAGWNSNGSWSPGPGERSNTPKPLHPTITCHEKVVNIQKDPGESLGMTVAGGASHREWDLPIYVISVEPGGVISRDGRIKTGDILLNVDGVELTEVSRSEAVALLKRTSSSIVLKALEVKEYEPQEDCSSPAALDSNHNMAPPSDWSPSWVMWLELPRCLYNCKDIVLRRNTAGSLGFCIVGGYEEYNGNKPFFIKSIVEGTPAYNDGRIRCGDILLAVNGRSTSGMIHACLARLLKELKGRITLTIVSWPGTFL

effect of a mutation on the interaction	Variant
disrupting interaction strength	P77L

Variants of: B2
Settings: with traf2_human TRAF2, Q12933
traf2_human TRAF2, Q12933, sequence (Q12933 whole entry): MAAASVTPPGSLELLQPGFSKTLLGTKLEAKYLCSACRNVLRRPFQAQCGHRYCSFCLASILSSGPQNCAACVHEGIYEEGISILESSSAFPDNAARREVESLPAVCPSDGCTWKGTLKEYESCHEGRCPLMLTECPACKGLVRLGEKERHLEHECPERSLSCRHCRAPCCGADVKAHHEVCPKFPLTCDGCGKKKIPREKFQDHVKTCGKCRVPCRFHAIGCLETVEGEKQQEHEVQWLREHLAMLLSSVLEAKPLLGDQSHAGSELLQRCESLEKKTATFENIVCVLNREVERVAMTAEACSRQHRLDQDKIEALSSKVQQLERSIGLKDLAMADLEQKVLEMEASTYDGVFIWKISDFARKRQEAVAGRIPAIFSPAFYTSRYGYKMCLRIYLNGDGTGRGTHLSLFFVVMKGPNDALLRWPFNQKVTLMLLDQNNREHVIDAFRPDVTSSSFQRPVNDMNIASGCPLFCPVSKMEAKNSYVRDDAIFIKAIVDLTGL

effect of a mutation on the interaction	Variant
with no effect	N398S
with no effect	P256L
disrupting interaction strength	G244E
disrupting interaction strength	Q248E
with no effect	I678V

Variants of: B2
Settings: with zsc22_human ZSCAN22, P10073
zsc22_human ZSCAN22, P10073, sequence (P10073 whole entry): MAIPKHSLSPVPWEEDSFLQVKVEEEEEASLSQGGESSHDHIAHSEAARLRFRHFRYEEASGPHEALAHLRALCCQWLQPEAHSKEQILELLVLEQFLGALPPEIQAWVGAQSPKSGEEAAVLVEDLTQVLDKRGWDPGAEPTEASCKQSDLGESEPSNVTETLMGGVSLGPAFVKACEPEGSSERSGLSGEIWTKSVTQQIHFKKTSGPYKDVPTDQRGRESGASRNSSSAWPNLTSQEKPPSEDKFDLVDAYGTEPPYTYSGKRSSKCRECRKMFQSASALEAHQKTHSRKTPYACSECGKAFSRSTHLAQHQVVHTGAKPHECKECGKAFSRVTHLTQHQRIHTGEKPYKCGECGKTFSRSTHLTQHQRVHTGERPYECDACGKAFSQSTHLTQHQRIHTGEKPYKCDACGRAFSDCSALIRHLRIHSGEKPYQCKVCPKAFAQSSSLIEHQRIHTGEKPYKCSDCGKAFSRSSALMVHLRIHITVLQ

effect of a mutation on the interaction	Variant
with no effect	N398S
disrupting interaction strength	P256L
with no effect	G244E
with no effect	Q248E
with no effect	I678V

Variants of: B2
Settings: with zn446_human ZNF446, Q9NWS9
zn446_human ZNF446, Q9NWS9, sequence (Q9NWS9 whole entry): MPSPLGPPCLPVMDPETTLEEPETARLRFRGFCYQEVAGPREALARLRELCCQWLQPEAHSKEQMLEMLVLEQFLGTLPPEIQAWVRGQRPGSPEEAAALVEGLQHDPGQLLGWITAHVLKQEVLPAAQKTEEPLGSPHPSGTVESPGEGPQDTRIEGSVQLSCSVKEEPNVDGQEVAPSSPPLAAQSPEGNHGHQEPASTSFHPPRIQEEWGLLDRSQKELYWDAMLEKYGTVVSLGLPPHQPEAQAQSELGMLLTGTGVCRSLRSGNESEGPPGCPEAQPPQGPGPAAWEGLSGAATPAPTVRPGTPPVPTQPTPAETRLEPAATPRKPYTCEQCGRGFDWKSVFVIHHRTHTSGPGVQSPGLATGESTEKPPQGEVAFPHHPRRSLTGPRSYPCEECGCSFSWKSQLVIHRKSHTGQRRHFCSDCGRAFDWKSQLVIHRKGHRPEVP

effect of a mutation on the interaction	Variant
with no effect	N398S
disrupting interaction strength	P256L
with no effect	G244E
with no effect	Q248E
with no effect	I678V

Variants of: B2
Settings: with znf24_human ZNF24, P17028
znf24_human ZNF24, P17028, sequence (P17028 whole entry): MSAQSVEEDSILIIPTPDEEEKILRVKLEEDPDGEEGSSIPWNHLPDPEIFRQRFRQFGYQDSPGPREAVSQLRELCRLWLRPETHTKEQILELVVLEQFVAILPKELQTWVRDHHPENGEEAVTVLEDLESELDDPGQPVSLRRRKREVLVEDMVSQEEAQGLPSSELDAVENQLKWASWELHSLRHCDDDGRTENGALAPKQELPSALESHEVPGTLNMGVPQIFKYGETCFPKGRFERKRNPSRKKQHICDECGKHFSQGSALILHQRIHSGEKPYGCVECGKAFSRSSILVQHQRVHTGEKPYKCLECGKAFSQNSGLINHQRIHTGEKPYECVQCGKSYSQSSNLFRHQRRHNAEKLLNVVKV

effect of a mutation on the interaction	Variant
with no effect	T25A
with no effect	I678V

Variants of: B3
Settings: with leg8_human LGALS8, O00214
leg8_human LGALS8, O00214, sequence (O00214 whole entry): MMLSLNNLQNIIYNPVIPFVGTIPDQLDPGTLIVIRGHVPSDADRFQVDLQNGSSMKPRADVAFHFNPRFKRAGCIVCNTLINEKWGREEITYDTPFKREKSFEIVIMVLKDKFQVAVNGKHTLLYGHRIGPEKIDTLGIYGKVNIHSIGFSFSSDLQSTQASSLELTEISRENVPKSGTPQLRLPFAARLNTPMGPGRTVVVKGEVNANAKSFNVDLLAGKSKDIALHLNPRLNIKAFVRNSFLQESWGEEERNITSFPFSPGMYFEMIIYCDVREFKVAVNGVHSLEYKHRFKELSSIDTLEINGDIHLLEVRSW

effect of a mutation on the interaction	Variant
with no effect	P389A
with no effect	T255A

Variants of: B3
Settings: with tcl1a_human TCL1A

effect of a mutation on the interaction	Variant
with no effect	P389A

Variants of: B3
Settings: with dus12_human DUSP12, Q9UNI6
dus12_human DUSP12, Q9UNI6, sequence (Q9UNI6 whole entry): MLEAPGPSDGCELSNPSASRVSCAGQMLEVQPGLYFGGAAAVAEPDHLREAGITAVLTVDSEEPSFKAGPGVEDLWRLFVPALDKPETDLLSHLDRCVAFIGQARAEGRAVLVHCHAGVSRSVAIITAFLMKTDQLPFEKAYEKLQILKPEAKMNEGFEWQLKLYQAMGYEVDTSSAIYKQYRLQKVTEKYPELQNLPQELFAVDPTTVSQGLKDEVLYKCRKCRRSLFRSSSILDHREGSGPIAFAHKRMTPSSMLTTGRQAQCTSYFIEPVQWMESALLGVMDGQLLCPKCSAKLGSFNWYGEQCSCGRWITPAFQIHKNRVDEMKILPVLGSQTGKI

effect of a mutation on the interaction	Variant
with no effect	P389A

Variants of: B3
Settings: with tekt3_human TEKT3, Q9BXF9
tekt3_human TEKT3, Q9BXF9, sequence (Q9BXF9 whole entry): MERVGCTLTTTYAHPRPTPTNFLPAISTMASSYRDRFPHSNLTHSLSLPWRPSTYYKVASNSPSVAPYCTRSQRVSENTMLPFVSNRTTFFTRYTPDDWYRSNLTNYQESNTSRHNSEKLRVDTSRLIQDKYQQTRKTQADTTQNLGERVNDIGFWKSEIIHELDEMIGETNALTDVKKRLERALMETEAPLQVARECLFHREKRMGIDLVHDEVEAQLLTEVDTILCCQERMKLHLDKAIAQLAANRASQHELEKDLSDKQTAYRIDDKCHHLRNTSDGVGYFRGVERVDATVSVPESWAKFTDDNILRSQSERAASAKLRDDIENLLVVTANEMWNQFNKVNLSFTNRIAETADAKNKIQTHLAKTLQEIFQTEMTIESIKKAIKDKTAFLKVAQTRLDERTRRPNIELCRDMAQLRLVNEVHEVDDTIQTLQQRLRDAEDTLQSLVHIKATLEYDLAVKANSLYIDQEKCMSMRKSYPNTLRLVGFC

effect of a mutation on the interaction	Variant
with no effect	V248A

Reference: IntAct's records for PubMed 31515488
